Our source for the fraction of Ca^2+/CaM bound longer than 60 s values is publication PMC10313165.

Assay [1] deals with rat CaMKIIα holoenzyme with pT286 (rat (Rattus norvegicus)) (UniProt P11275). As to the kind of experiment: high-speed atomic force microscopy; 50 nM CaMKII and 800 nM CaM premixed in buffer B with 1 mM CaCl2 and 1 mM ATP, 30 °C, 5 min; imaged in buffer A with 1 mM CaCl2 and 1 mM ATP on pillar[5]arene-modified mica, 24-26 °C.
Assay [2] deals with rat CaMKIIα holoenzyme (wild type, not phosphorylated) (rat (Rattus norvegicus)) (UniProt P11275). Kind of assay: high-speed atomic force microscopy; 50 nM CaMKII and 800 nM CaM premixed in buffer B (50 mM tris-HCl pH 7.4, 150 mM KCl, 10 mM MgCl2) with 1 mM CaCl2, 30 °C, 5 min, no ATP; imaged in buffer A with 1 mM CaCl2 on pillar[5]arene-modified mica, 24-26 °C.

As for “rat calmodulin, 6xHis-tagged (Ca^2+-bound in the assays) (from UniProt P0DP29 1-149) (natural protein; other documents disagree on this pair)”, the fraction of Ca^2+/CaM bound longer than 60 s was 77.3% in assay [1] and 41.1% in assay [2].
